Laboratory results from US20150274807A1 (SUZHOU ALPHAMAB, published 2015).

B1: Fc protein K392D/K409D/D399K (other)
chain: GSGGGDKTHTCPPCPAPELLGGPSVFLFPPKPKDTLMISRTPEVTCVVVDVSHENPEVKFNWYVDGVEVHNAKTKPREEQYNSTYRVVSVLTVLHQDWLNGKEYKCKVSNKALPAPIEKTISKAKGQPREPQVYTLPPSREEMTKNQVSLTCLVKGFYPSDIAVEWESNGQPENNYDTTPPVLKSDGSFFLYSDLTVDKSRWQQGNVFSCSVMHEALHNHYTQKSLSLSPGK
notes: Monomer chain; EU numbering is K392D/K409D/D399K; also called Fc-mix1; Fc of mutation combinations 1, 5 and 6

Tests used:
[1] = molecular target: B1; assay: co-transfection 1:1 in 293H, protein A pull-down, non-reducing SDS-PAGE densitometry
Protocol: (§1) The expression vectors harbor 8 mutation combinations in step 3 were separately transfected with PEI into suspension adapted 293H cells (ATCC CRL-1573), the co-transfection ratio of plasmids pcDNA3.1-zeo-ScFv-Fc to pcMVβ-SP-Fc was 1:1, and after 3-4 days, cell culture supernatant was collected. Immuno precipitation was performed with protein A agarose resin, and the content of the homodimer proteins or antibodies (ScFv-Fc/ScFv-Fc and Fc/Fc) and the heterodimer protein or antibody (ScFv-Fc/Fc) was detected by SDS-PAGE under non-reducing conditions. Gel-Pro professional image analysis software (Media Cybernetics company) was used for analyzing the proportion of the homodimer proteins or antibodies (ScFv-Fc/ScFv-Fc and Fc/Fc) and the heterodimer protein or antibody (ScFv-Fc/Fc). […] In addition, when E357K/K370E/K392D/K409D/D399K (mutation combination 4) was introduced on Fc, the stability should be further investigated because of the appearance of Fc monomers (about 6%).

[2] = molecular target: the molecule itself; assay: co-transfection 1:1 in 293H, protein A pull-down, non-reducing SDS-PAGE densitometry; co-expressed with Fc K392D/K409D/D399K
Protocol: as §1

[3] = molecular target: the molecule itself; assay: co-transfection 1:1 in 293H, protein A pull-down, non-reducing SDS-PAGE densitometry; co-expressed with ScFv-Fc WT
Protocol: as §1

| Binder | proportion of ScFv-Fc/Fc heterodimer on SDS-PAGE [1] | proportion of ScFv-Fc homodimer on SDS-PAGE [2] | proportion of Fc homodimer on SDS-PAGE [3] |
| --- | --- | --- | --- |
| ScFv-Fc protein E356K/K439E (Fc fusion, Monomer chain; also called scFv-Fcmix1; ScFv-Fc of mutation combination 6) EVQLLESGGGVVQPGRSLRLSCIASGFTFSSYPMTWVRQAPGKGLEWVASISYDGSYKYKADSMKGRLTISRDNSKNTLYLEMNSLTAEDTAVYYCARTAFFNAYDFWGQGTLVTVSSASTKGPSVGGGGSGGGGSEIVMTQSPATLSVSPGERATLSCRASQSVRSNLAWYQQKPGQAPRLLIYAASTRATGIPARFSGSGSGTEFTLTISSLQSEDFAVYYCQQYNEWFRTSGQGTKVEIKRDKTHTCPPCPAPELLGGPSVFLFPPKPKDTLMISRTPEVTCVVVDVSHENPEVKFNWYVDGVEVHNAKTKPREEQYNSTYRVVSVLTVLHQDWLNGKEYKCKVSNKALPAPIEKTISKAKGQPREPQVYTLPPSRKEMTKNQVSLTCLVKGFYPSDIAVEWESNGQPENNYKTTPPVLDSDGSFFLYSKLTVDKSRWQQGNVFSCSVMHEALHNHYTQESLSLSPGK | 8.4% | 31.2% | – |
| ScFv-Fc protein E357K/K370E (Fc fusion, Monomer chain; also called ScFv-Fc of mutation combination 5) EVQLLESGGGVVQPGRSLRLSCIASGFTFSSYPMTWVRQAPGKGLEWVASISYDGSYKYKADSMKGRLTISRDNSKNTLYLEMNSLTAEDTAVYYCARTAFFNAYDFWGQGTLVTVSSASTKGPSVGGGGSGGGGSEIVMTQSPATLSVSPGERATLSCRASQSVRSNLAWYQQKPGQAPRLLIYAASTRATGIPARFSGSGSGTEFTLTISSLQSEDFAVYYCQQYNEWFRTSGQGTKVEIKRDKTHTCPPCPAPELLGGPSVFLFPPKPKDTLMISRTPEVTCVVVDVSHENPEVKFNWYVDGVEVHNAKTKPREEQYNSTYRVVSVLTVLHQDWLNGKEYKCKVSNKALPAPIEKTISKAKGQPREPQVYTLPPSREKMTKNQVSLTCLVEGFYPSDIAVEWESNGQPENNYKTTPPVLDSDGSFFLYSKLTVDKSRWQQGNVFSCSVMHEALHNHYTQKSLSLSPGK | 5.9% | 41.5% | – |
| Fc protein E357K/K370E (other, Monomer chain; also called Fc of mutation combination 3) GSGGGDKTHTCPPCPAPELLGGPSVFLFPPKPKDTLMISRTPEVTCVVVDVSHENPEVKFNWYVDGVEVHNAKTKPREEQYNSTYRVVSVLTVLHQDWLNGKEYKCKVSNKALPAPIEKTISKAKGQPREPQVYTLPPSREKMTKNQVSLTCLVEGFYPSDIAVEWESNGQPENNYKTTPPVLDSDGSFFLYSKLTVDKSRWQQGNVFSCSVMHEALHNHYTQKSLSLSPGK | – | – | 47.5% |
| Fc protein E356K/K439E (other, Monomer chain; also called Fc of mutation combination 2) GSGGGDKTHTCPPCPAPELLGGPSVFLFPPKPKDTLMISRTPEVTCVVVDVSHENPEVKFNWYVDGVEVHNAKTKPREEQYNSTYRVVSVLTVLHQDWLNGKEYKCKVSNKALPAPIEKTISKAKGQPREPQVYTLPPSRKEMTKNQVSLTCLVKGFYPSDIAVEWESNGQPENNYKTTPPVLDSDGSFFLYSKLTVDKSRWQQGNVFSCSVMHEALHNHYTQESLSLSPGK | – | – | 41.1% |
| B1 | – | – | 51.3% |
| Fc protein E357K/K370E/K392D/K409D/D399K (other, Monomer chain; also called Fc-mix13; Fc of mutation combination 4) GSGGGDKTHTCPPCPAPELLGGPSVFLFPPKPKDTLMISRTPEVTCVVVDVSHENPEVKFNWYVDGVEVHNAKTKPREEQYNSTYRVVSVLTVLHQDWLNGKEYKCKVSNKALPAPIEKTISKAKGQPREPQVYTLPPSREKMTKNQVSLTCLVEGFYPSDIAVEWESNGQPENNYDTTPPVLKSDGSFFLYSDLTVDKSRWQQGNVFSCSVMHEALHNHYTQKSLSLSPGK | – | – | 28.7% |
| Fc protein D399K/K409D (other, Monomer chain; also called Fc of mutation combination 8) GSGGGDKTHTCPPCPAPELLGGPSVFLFPPKPKDTLMISRTPEVTCVVVDVSHENPEVKFNWYVDGVEVHNAKTKPREEQYNSTYRVVSVLTVLHQDWLNGKEYKCKVSNKALPAPIEKTISKAKGQPREPQVYTLPPSREEMTKNQVSLTCLVKGFYPSDIAVEWESNGQPENNYKTTPPVLKSDGSFFLYSDLTVDKSRWQQGNVFSCSVMHEALHNHYTQKSLSLSPGK | – | – | 43.4% |
| Fc protein K392D/D399K (other, Monomer chain; also called Fc of mutation combination 7) GSGGGDKTHTCPPCPAPELLGGPSVFLFPPKPKDTLMISRTPEVTCVVVDVSHENPEVKFNWYVDGVEVHNAKTKPREEQYNSTYRVVSVLTVLHQDWLNGKEYKCKVSNKALPAPIEKTISKAKGQPREPQVYTLPPSREEMTKNQVSLTCLVKGFYPSDIAVEWESNGQPENNYDTTPPVLKSDGSFFLYSKLTVDKSRWQQGNVFSCSVMHEALHNHYTQKSLSLSPGK | – | – | 44.7% |
